Paper doi:10.1101/2025.09.29.679228
Read-outs that look alike come from different tables or passages of the source. Blank lines part the entries; values can stand above or below the molecule they belong to.

Legend:
Assay in all cases: MST
[1] = molecular target: EphA2 ICRΔSAM, kinase-dead (D739N) (human)
[2] = molecular target: EphA2 ICRΔSAM, wildtype, phosphorylated (human)
[3] = molecular target: EphA2 intracellular region (ICR), kinase-dead (D739N) (human) (UniProt P29317)
[4] = molecular target: EphA2 intracellular region (ICR), wildtype, phosphorylated (human) (UniProt P29317)
[5] = molecular target: EphA2 ICRΔSAM, wildtype, phosphorylated (human); remark: listed apart in the source
Target sequence in this assay (P29317 899-973, stated change not applied): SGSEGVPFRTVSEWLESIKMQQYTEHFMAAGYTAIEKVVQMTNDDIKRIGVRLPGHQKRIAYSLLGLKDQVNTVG

Molecule: EphA2 ICRΔSAM, kinase-dead (D739N) (domain or fragment)
- Kd [1]: 1000 nM

Molecule: EphA2 ICRΔSAM, wildtype, phosphorylated (domain or fragment)
- Kd [2]: 5.4 µM

Molecule: EphA2 intracellular region (ICR), kinase-dead (D739N) (from UniProt P29317 559-976) (domain or fragment)
- Kd [3]: 1300 nM

Now from value to molecule:

- Kd [4]: 15 µM
Molecule: EphA2 intracellular region (ICR), wildtype, phosphorylated (from UniProt P29317 559-976) (domain or fragment)

- Kd [5]: 7.5 µM
B1: SHIP2 SAM domain (isolated) (domain or fragment)
chain: GMSAWLRAIGLERYEEGLVHNGWDDLEFLSDITEEDLEEAGVQDPAHKRLLLDTLQLSK
